Laboratory results published in US5750335.

Target: T1, MutS (Salmonella typhimurium) (UniProt P0A1Y0)
T1 sequence: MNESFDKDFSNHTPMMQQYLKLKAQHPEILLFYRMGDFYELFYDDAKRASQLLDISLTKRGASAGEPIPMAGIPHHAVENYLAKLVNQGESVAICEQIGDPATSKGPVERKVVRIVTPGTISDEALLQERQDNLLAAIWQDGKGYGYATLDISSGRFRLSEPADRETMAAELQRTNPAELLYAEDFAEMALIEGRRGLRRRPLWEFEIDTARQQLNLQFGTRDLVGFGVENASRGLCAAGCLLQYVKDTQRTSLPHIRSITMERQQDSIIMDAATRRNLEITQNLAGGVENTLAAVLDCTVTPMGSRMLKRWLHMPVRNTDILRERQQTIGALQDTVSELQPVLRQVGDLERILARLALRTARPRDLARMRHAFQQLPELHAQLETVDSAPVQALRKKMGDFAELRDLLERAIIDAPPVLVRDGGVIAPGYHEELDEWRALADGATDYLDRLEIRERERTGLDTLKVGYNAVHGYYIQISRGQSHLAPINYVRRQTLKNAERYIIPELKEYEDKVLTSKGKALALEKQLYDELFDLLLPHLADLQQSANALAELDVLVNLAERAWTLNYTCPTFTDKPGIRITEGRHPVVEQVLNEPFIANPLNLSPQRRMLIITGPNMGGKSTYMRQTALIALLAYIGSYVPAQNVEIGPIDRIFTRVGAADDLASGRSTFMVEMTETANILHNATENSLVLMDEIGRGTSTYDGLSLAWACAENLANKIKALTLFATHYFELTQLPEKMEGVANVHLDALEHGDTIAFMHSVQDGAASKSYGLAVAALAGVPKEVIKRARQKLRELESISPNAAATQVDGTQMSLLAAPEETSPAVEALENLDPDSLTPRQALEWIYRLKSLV
Assay: pulldown
Details: on ice

Substance	binding signal (fold over homoduplex) (immunoprecipitation with anti-MutS, 1 ug lambda competitor DNA)	binding signal (fold (reference)) (homoduplex control precipitated 9.6 fold less, competitor DNA)
1 KB AvaII-BglII M13mp8 C-A heteroduplex	9.6	
1 KB AvaII-BglII M13mp8 homoduplex		1
